Results taken from patent publication US20170362301A1 (Janssen / Centocor, published 2017).
Numbering of substitutions follows the chain as printed. In names and notes the source's numbering stands. Several values for one entry are separate records, joined by “and”; a condition that tells them apart may be missing. Identical values can stand only once.

Key:
[1] = molecular target: T1, EGFR on cells (A431, NCI-H292, NCI-H322, NCI-H441) (human, UniProt P00533 25-1210); test: cell-based or functional assay
[2] = molecular target: T2, EGFR (form in the assay not stated) (human, UniProt P00533 25-645, limits assumed); test: ELISA, NEM conjugate 10 nM (the reference itself)
[3] = molecular target: T2, EGFR (form in the assay not stated); test: ELISA, NEM conjugate 100 nM (the reference itself)
[4] = molecular target: T2, EGFR (form in the assay not stated); test: ELISA, NEM conjugate 500 nM (the reference itself)
[5] = molecular target: T3, c-Met on cells (NCI-H441, NCI-H292, U87-MG) (human, UniProt P08581 25-1390); test: cell-based or functional assay
[6] = molecular target: T1, EGFR on cells (A431, NCI-H292, …); test: cell-based or functional assay; remark: listed apart in the source
[7] = molecular target: T1, EGFR on cells (A431, NCI-H292, …); test: cell-based or functional assay; remark: listed apart in the source
[8] = molecular target: T2, EGFR (form in the assay not stated); test: ELISA, NEM conjugate 10 nM
[9] = molecular target: T2, EGFR (form in the assay not stated); test: ELISA, NEM conjugate 500 nM
[10] = molecular target: T2, EGFR (form in the assay not stated); test: ELISA, NEM conjugate 100 nM
[11] = molecular target: T3, c-Met on cells (NCI-H441, NCI-H292, …); test: cell-based or functional assay; remark: listed apart in the source
[12] = molecular target: T1, EGFR on cells (A431, NCI-H292, …); test: cell-based or functional assay; remark: listed apart in the source

T3 sequence (P08581 other isoform, or with tags, fused parts or gaps limits assumed): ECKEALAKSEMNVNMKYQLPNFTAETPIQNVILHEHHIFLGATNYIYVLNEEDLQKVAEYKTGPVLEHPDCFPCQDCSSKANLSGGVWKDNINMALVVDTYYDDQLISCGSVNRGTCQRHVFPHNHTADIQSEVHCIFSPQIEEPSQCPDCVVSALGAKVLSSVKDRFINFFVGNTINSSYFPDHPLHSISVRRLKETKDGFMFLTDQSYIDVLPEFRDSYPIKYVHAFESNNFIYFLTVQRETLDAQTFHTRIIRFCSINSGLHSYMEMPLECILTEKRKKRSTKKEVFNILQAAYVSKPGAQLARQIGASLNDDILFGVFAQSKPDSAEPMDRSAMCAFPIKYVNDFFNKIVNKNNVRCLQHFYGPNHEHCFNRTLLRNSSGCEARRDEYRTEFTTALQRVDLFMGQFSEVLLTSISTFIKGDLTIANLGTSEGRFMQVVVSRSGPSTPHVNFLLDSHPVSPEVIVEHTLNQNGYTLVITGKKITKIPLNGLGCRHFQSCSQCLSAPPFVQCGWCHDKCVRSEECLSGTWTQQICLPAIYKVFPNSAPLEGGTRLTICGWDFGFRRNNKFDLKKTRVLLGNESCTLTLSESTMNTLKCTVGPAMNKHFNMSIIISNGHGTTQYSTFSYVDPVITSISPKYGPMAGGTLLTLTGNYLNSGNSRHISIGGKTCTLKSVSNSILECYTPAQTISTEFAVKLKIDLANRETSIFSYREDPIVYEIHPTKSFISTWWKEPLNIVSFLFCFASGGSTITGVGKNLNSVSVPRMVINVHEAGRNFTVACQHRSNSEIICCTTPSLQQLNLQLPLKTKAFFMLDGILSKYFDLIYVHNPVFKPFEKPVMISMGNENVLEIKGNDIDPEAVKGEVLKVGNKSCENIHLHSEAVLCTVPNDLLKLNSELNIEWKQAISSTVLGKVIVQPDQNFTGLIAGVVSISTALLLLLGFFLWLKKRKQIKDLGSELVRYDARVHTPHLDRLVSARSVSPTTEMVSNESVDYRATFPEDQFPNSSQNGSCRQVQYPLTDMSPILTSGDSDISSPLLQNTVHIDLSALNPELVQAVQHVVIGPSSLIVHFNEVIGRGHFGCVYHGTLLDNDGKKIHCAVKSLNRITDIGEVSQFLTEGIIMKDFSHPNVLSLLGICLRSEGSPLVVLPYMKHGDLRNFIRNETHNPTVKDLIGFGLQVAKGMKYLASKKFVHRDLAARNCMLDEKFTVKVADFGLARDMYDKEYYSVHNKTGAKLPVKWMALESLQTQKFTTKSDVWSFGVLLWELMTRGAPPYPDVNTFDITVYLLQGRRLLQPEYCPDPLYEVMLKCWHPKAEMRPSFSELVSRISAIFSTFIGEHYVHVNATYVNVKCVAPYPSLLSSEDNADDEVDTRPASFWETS

B1: 83v2cy5-mal-PEG4-MMAE (designed binder)
chain: MLPAPKNLVVSEVTEDSARLSWDDPWAFYESFLIQYQESEKVGEAIVLTVPGSERSYDLTGLKPGTEYTVSIYGVHNVYKDTNMRGLPLSAIFTTGGHHHHHHC
modifications: mal-PEG4-MMAE on the cysteine
B1 was tested, and the “IC50 A431 (nM), cell viability” value [1] was > 500 nM.

B2: 83v2cy5-mal-PEG4-VK-MMAF (designed binder)
chain: B1 chain
modifications: mal-PEG4-VK-MMAF on the cysteine
In the case of B2, the “IC50 A431 (nM), cell viability” value [1] is reported as 3.9 nM.

B3: 83v2cy5-mal-PEG4-VC-MMAE (designed binder)
chain: B1 chain
modifications: mal-PEG4-VC-MMAE on the cysteine
For B3, the “IC50 A431 (nM), cell viability” value [1] was 315 nM.

B4: 83v2His6-cys, NEM conjugate (designed binder)
chain: B1 chain
modifications: NEM on the C-terminal Cys
notes: also called P54AR4-83v2-cys; P54AR4-83v2 parent
B4 was tested, and the “binding ratio vs parent P54AR4-83v2” value [2] was 1 ratio, the “binding ratio vs parent P54AR4-83v2” value [3] was 1 ratio and the “binding ratio vs parent P54AR4-83v2” value [4] was 1 ratio.

B5: 83v2cy5-mal-PEG4-VC-MMAF (designed binder)
chain: B1 chain
modifications: mal-PEG4-VC-MMAF on the cysteine
With B5 the “IC50 A431 (nM), cell viability” value [1] was 1.6 nM and the “IC50 H1537 (nM), cell viability” value [1] was 1.19 nM and 1.05 nM.

B6: 83v2cy5-mal-PEG4-VK-MMAE (designed binder)
chain: B1 chain
modifications: mal-PEG4-VK-MMAE on the cysteine
B6 was tested, and the “IC50 A431 (nM), cell viability” value [1] was 19.6 nM.

B7: 83v2cy5-mal-PEG4-MMAF (designed binder)
chain: B1 chain
modifications: mal-PEG4-MMAF on the cysteine
For B7, the “IC50 A431 (nM), cell viability” value [1] was > 1000 nM.

B8: P114AR5P74-A5 (designed binder)
chain: LPAPKNLVVSRVTEDSARLSWTAPDAAFDSFWIRYDEVVVGGEAIVLTVPGSERSYDLTGLKPGTEYYVNILGVKGGSISVPLSAIFTT
For B8, the “c-Met phosphorylation in NCI-H292 cells IC50” value [5] was 610 nM.

B9: ECB5 (designed binder)
chain: MLPAPKNLVVSEVTEDSARLSWADPHGFYDSFLIQYQESEKVGEAIVLTVPGSERSYDLTGLKPGTEYTVSIYGVHNVYKDTNMRGLPLSAIFTTGGGGSGGGGSGGGGSGGGGSMLPAPKNLVVSRVTEDSARLSWTAPDAAFDSFWIRYFEFLGSGEAIVLTVPGSERSYDLTGLKPGTEYVVNIMGVKGGKISPPLSAIFTT
With B9 the “fold decrease of IC50 for inhibition of EGFR phosphorylation in NCI-H441 cells against monospecific P53A1R5-17v2” value [6] was 30 fold.

B10: P54CR4-31 (designed binder)
chain: LPAPKNLVVSEVTEDSLRLSWTAPDAAFDSFLIQYQESEKVGEAINLTVPGSERSYDLTGLKPGTEYTVSIYGVLGSYVFEHDVMLPLSAEFTT
In the case of B10, the “Phospho-EGFR IC50, A431 cells” value [7] is reported as 179 nM.

B11: P53A1R5-17 (designed binder)
chain: LPAPKNLVVSEVTEDSLRLSWADPHGFYDSFLIQYQESEKVGEAINLTVPGSERSYDLTGLKPGTEYTVSIYGVHNVYKDTNMRGLPLSAEFTT
B11 was tested, and the “Phospho-EGFR IC50, A431 cells” value [7] was > 2500 nM.

B12: P54AR4-48 (designed binder)
chain: B11 chain with A22D, H25R, D29E
With B12 the “Phospho-EGFR IC50, A431 cells” value [7] was 170 nM.

B13: P54AR4-83 (designed binder)
chain: B11 chain with A22D, H25W, G26A, D29E
With B13 the “Phospho-EGFR IC50, A431 cells” value [7] was 18 nM.

B14: P54AR4-83v2 Y72C, NEM conjugate (designed binder)
chain: B11 chain with L17A, A22D, H25W, G26A, D29E, N46V, Y72C, E91I
modifications: NEM on Cys 72
notes: His-tagged
B14 was tested, and the “binding ratio vs parent P54AR4-83v2” value [8] was 0.93 ratio, the “binding ratio vs parent P54AR4-83v2” value [9] was 0.93 ratio and the “binding ratio vs parent P54AR4-83v2” value [10] was 1 ratio.

B15: P54AR4-83v2 V77C, NEM conjugate (designed binder)
chain: B11 chain with L17A, A22D, H25W, G26A, D29E, N46V, V77C, E91I
modifications: NEM on Cys 77
notes: His-tagged
With B15 the “binding ratio vs parent P54AR4-83v2” value [8] was 0.03 ratio, the “binding ratio vs parent P54AR4-83v2” value [9] was 0.03 ratio and the “binding ratio vs parent P54AR4-83v2” value [10] was 0 ratio.

B16: P54AR4-17 (designed binder)
chain: B11 chain with A22T, D23Y, P24D, H25R, G26D, F27G
For B16, the “Phospho-EGFR IC50, A431 cells” value [7] was 184 nM.

B17: P54AR4-83v2 Y78C, NEM conjugate (designed binder)
chain: B11 chain with L17A, A22D, H25W, G26A, D29E, N46V, Y78C, E91I
modifications: NEM on Cys 78
notes: His-tagged
With B17 the “binding ratio vs parent P54AR4-83v2” value [8] was 0.31 ratio, the “binding ratio vs parent P54AR4-83v2” value [9] was 0.68 ratio and the “binding ratio vs parent P54AR4-83v2” value [10] was 0.63 ratio.

B18: P54AR4-83v2 W25C, NEM conjugate (designed binder)
chain: B11 chain with L17A, A22D, H25C, G26A, D29E, N46V, E91I
modifications: NEM on Cys 25
notes: His-tagged
B18 was tested, and the “binding ratio vs parent P54AR4-83v2” value [8] was 0.38 ratio, the “binding ratio vs parent P54AR4-83v2” value [9] was 0.7 ratio and the “binding ratio vs parent P54AR4-83v2” value [10] was 0.64 ratio.

B19: P54AR4-73 (designed binder)
chain: B11 chain with A22T, D23W, H25Y, G26A, F27D, Y28L
In the case of B19, the “Phospho-EGFR IC50, A431 cells” value [7] is reported as 141 nM.

B20: P54AR4-83v2 Y28C, NEM conjugate (designed binder)
chain: B11 chain with L17A, A22D, H25W, G26A, Y28C, D29E, N46V, E91I
modifications: NEM on Cys 28
notes: His-tagged
In the case of B20, the “binding ratio vs parent P54AR4-83v2” value [8] is reported as 0 ratio, the “binding ratio vs parent P54AR4-83v2” value [9] is reported as 0.09 ratio and the “binding ratio vs parent P54AR4-83v2” value [10] is reported as 0.01 ratio.

B21: ECB38 (designed binder)
chain: MLPAPKNLVVSEVTEDSARLSWDDPWAFYESFLIQYQESEKVGEAIVLTVPGSERSYDLTGLKPGTEYTVSIYGVHNVYKDTNMRGLPLSAIFTTAPAPAPAPAPLPAPKNLVVSRVTEDSARLSWTAPDAAFDSFWIRYFEFLGSGEAIVLTVPGSERSYDLTGLKPGTEYVVNIMGVKGGKISPPLSAIFTTAPAPAPAPAPLAEAKVLANRELDKYGVSDYYKNLINNAKTVEGVKALLDEILAALP
With B21 the “HGF-stimulated c-Met phosphorylation in NCI-H292 cells IC50” value (from here on “HGF-stimulated c-Met phosphorylation”) [11] was 1.3 nM and the “EGF-stimulated EGFR phosphorylation in NCI-H292 cells IC50” value (shortened to “EGF-stimulated EGFR phosphorylation”) [12] was 2.3 nM.

B22: ECB147v3-PEG24 (designed binder)
chain: B21 chain with K63C, A98C, K167C, G178S, K183S, A197C
modifications: PEG24-maleimide on the engineered cysteines
With B22 the “HGF-stimulated c-Met phosphorylation” value [11] was 0.5 nM and the “EGF-stimulated EGFR phosphorylation” value [12] was 1.6 nM.

B23: ECB147v6-PEG24 (designed binder)
chain: B21 chain with K63C, G178S, K183S
modifications: PEG24-maleimide on the engineered cysteine
B23 was tested, and the “HGF-stimulated c-Met phosphorylation” value [11] was 0.4 nM and the “EGF-stimulated EGFR phosphorylation” value [12] was 1.4 nM.

B24: ECB147v5-PEG24 (designed binder)
chain: B21 chain with K63C, K167C, G178S, K183S
modifications: PEG24-maleimide on the engineered cysteines
With B24 the “HGF-stimulated c-Met phosphorylation” value [11] was 0.4 nM and the “EGF-stimulated EGFR phosphorylation” value [12] was 0.9 nM.

B25: ECB147v7-PEG24 (designed binder)
chain: B21 chain with A98C, G178S, K183S, A197C
modifications: PEG24-maleimide on the engineered cysteines
For B25, the “HGF-stimulated c-Met phosphorylation” value [11] was 0.5 nM and the “EGF-stimulated EGFR phosphorylation” value [12] was 1.4 nM.
